± gives the standard deviation of the averaged measurements.
What was measured:
[1] = test system: Saccharomyces cerevisiae; assay: protein stability index of tFT-peptide fusion (C-terminal peptide) (PSI (0-1 scale)); higher = more stable (slower turnover)
Protocol: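 MPS profiling in S. cerevisiae of the tFT-X12 degron library: putative degron peptides plus stable controls, 12 aa, fused to the C-terminus of a sfGFP-mCherry timer. Cells are FACS-sorted into 8 mCherry/sfGFP bins and deep-sequenced. PSI runs from 0 (unstable) to 1 (stable). Backgrounds are wild type, das1Δ and doa10Δ at 30 °C, and wild type, das1Δ, cdc34-1 and cdc53-1 at 37 °C; 2-3 technical replicates each.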

[2] = test system: Saccharomyces cerevisiae; assay: as above; conditions: genetic background: wild type; temperature: 30 C
[3] = genetic background: cdc34-1, temperature: 37 C
[4] = genetic background: cdc53-1, temperature: 37 C
[5] = genetic background: das1 deletion, temperature: 30 C
[6] = genetic background: das1 deletion, temperature: 37 C
[7] = genetic background: doa10 deletion, temperature: 30 C
[8] = genetic background: wild type, temperature: 30 C
[9] = genetic background: wild type, temperature: 37 C
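Note: PSI is a weighted mean of sequencing reads over stability bins, variants kept only with over 10 reads, mCherry proximal and sfGFP distal, peptide attached via GGGS linker.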

Sequence	protein stability index [1, 3]	protein stability index [1, 4]	protein stability index [1, 5]	protein stability index [1, 6]	protein stability index [1, 7]	protein stability index [1, 8]	protein stability index [1, 9]	protein stability index [2]
SRLLGVKVSLVC	0.518 ± 0.025	0.567 ± 0.033	0.419 ± 0.031	0.581 ± 0.0085	0.35 ± 0.0097	0.384 ± 0.031	0.5364 ± 0.0038	0.472 ± 0.032
SRVSEFVIPLGR	0.7038 ± 0.0057	0.7389 ± 0.0046	0.622 ± 0.018	0.7555 ± 0.0021	0.644 ± 0.023	0.6473 ± 0.0059	0.71 ± 0.016	0.719 ± 0.033
SSAFFFLLFSLA	0.4227 ± 0.003	0.484 ± 0.006	0.342 ± 0.031	0.511 ± 0.009	0.244 ± 0.0068	0.266 ± 0.037	0.446 ± 0.0051	0.366 ± 0.013
SSGIGLFVWVYG	0.465 ± 0.0058	0.456 ± 0.015	0.282 ± 0.035	0.514 ± 0.013	0.226 ± 0.0051	0.268 ± 0.035	0.5023 ± 0.0012	0.421 ± 0.014
SSLLLLCCLLVG	0.365 ± 0.029	0.427 ± 0.015	0.277 ± 0.032	0.437 ± 0.01	0.248 ± 0.013	0.263 ± 0.03	0.403 ± 0.014	0.332 ± 0.01
SSVCVLVSCVLG	0.462 ± 0.019	0.5241 ± 0.0032	0.375 ± 0.037	0.5353 ± 0.0013	0.363 ± 0.013	0.382 ± 0.022	0.5117 ± 0.00052	0.4818 ± 0.0031
SVGWGFWARFIG	0.686 ± 0.057	0.756 ± 0.013	0.665 ± 0.014	0.772 ± 0.0086	0.215 ± 0.016	0.253 ± 0.017	0.434 ± 0.018	0.379 ± 0.069
SVLALLWVGCWL	0.355 ± 0.0064	0.4238 ± 0.0021	0.271 ± 0.045	0.478 ± 0.017	0.253 ± 0.0065	0.265 ± 0.029	0.452 ± 0.028	0.378 ± 0.055
SVQICGFWLILG	0.512 ± 0.031	0.604 ± 0.046	0.416 ± 0.026	0.5955 ± 0.0046	0.317 ± 0.0037	0.333 ± 0.011	0.53992 ± 0.00031	0.386 ± 0.06
SVRGGSFLVHLC	0.614 ± 0.096	0.758 ± 0.011	0.636 ± 0.018	0.7525 ± 0.0012	0.154 ± 0.017	0.168 ± 0.015	0.337 ± 0.015	0.337 ± 0.043
SVVVLHVHVRPP	0.618 ± 0.035	0.692 ± 0.018	0.5839 ± 0.0056	0.63 ± 0.011	0.593 ± 0.044	0.582 ± 0.024	0.6287 ± 0.0031	0.517 ± 0.12
SWCLLVWIGGVF	0.288 ± 0.038	0.376 ± 0.033	0.295 ± 0.027	0.451 ± 0.02	0.251 ± 0.01	0.264 ± 0.03	0.432 ± 0.017	0.388 ± 0.094
SWGRGADRWRRA	0.645 ± 0.042	0.7218 ± 0.0025	0.649 ± 0.017	0.7267 ± 0.0056	0.156 ± 0.019	0.195 ± 0.016	0.4725 ± 0.0013	0.319 ± 0.056
SYWNSSPKCGNW	0.712 ± 0.064	0.76 ± 0.022	0.667 ± 0.021	0.7705 ± 0.0011	0.664 ± 0.039	0.681 ± 0.018	0.746 ± 0.011	0.744 ± 0.0092
TCRLIQLTVTLH	0.3115 ± 0.0026	0.3774 ± 0.001	0.257 ± 0.038	0.458 ± 0.0051	0.232 ± 0.0034	0.253 ± 0.018	0.4071 ± 0.0036	0.386 ± 0.053
TCVVCSCVLQCV	0.47 ± 0.041	0.491 ± 0.02	0.307 ± 0.023	0.49 ± 0.0051	0.305 ± 0.027	0.324 ± 0.028	0.4641 ± 0.0042	0.362 ± 0.04
TLCHLTLICVRE	0.221 ± 0.0099	0.253 ± 0.018	0.226 ± 0.019	0.358 ± 0.011	0.1767 ± 0.00029	0.21 ± 0.018	0.336 ± 0.012	0.382 ± 0.027
TLVFPRFLFLVV	0.348 ± 0.02	0.365 ± 0.019	0.393 ± 0.031	0.493 ± 0.023	0.518 ± 0.011	0.363 ± 0.028	0.432 ± 0.0083	0.452 ± 0.066
TNHRVRHWILRV	0.665 ± 0.013	0.721 ± 0.0099	0.609 ± 0.024	0.713 ± 0.02	0.253 ± 0.022	0.301 ± 0.019	0.517 ± 0.0083	0.396 ± 0.031
TPLLPPSPPPSR	0.647 ± 0.02		0.27 ± 0.02	0.46 ± 0.0089	0.244 ± 0.0028	0.277 ± 0.017	0.4348 ± 0.0042	0.3328 ± 0.0026

Sequence	protein stability index [1, 3]	protein stability index [1, 4]	protein stability index [1, 5]	protein stability index [1, 6]	protein stability index [1, 7]	protein stability index [1, 8]	protein stability index [1, 9]	protein stability index [2]
TRPHPLRRVFIF	0.669 ± 0.034	0.725 ± 0.013	0.643 ± 0.0072	0.735 ± 0.013	0.226 ± 0.013	0.23 ± 0.038	0.433 ± 0.041	0.293 ± 0.026
TRSLLFANRCIV	0.66 ± 0.047	0.706 ± 0.033	0.619 ± 0.017	0.737 ± 0.0079	0.269 ± 0.0075	0.304 ± 0.025	0.503 ± 0.009	0.396 ± 0.014
TVCSWSALSRFM	0.691 ± 0.042	0.7558 ± 0.0062	0.6449 ± 0.0016	0.76419 ± 0.00033	0.631 ± 0.032	0.627 ± 0.015	0.705 ± 0.0097	0.587 ± 0.15
TVILVLFPSPFL	0.589 ± 0.036	0.679 ± 0.012	0.472 ± 0.037	0.671 ± 0.023	0.448 ± 0.014	0.484 ± 0.01	0.597 ± 0.017	0.51 ± 0.021
VAFFSVFYWLEC	0.287 ± 0.069	0.424 ± 0.066	0.299 ± 0.021	0.47 ± 0.033	0.261 ± 0.0032	0.29 ± 0.034	0.454 ± 0.018	0.365 ± 0.023
VARRRQQWMRGS	0.517 ± 0.066	0.56 ± 0.034	0.5261 ± 0.003	0.54643 ± 0.00042	0.529 ± 0.0063	0.516 ± 0.025	0.5449 ± 0.004	0.517 ± 0.041
VCAFCLFFVPLP	0.5888 ± 0.00072	0.668 ± 0.023	0.425 ± 0.038	0.6497 ± 0.0021	0.3831 ± 0.0035	0.413 ± 0.022	0.593 ± 0.012	0.47 ± 0.013
VCFWCLYVMFSL	0.46 ± 0.043	0.494 ± 0.01	0.383 ± 0.019	0.463 ± 0.0068	0.372 ± 0.0057	0.363 ± 0.021	0.471 ± 0.022	0.418 ± 0.018
VCIPLLVIRFLV	0.098 ± 0.013	0.182 ± 0.014	0.234 ± 0.022	0.386 ± 0.029	0.0616 ± 0.019	0.0599 ± 0.014	0.0485 ± 0.00051	0.109 ± 0.0095
VCLFSVCLWFVS	0.0838 ± 0.025	0.219 ± 0.062	0.16 ± 0.026	0.313 ± 0.011	0.124 ± 0.0088	0.141 ± 0.015	0.227 ± 0.013	0.21 ± 0.044
VCLLVSVCLLWL	0.172 ± 0.0043	0.244 ± 0.047	0.21 ± 0.013	0.329 ± 0.021	0.18 ± 0.023	0.192 ± 0.025	0.309 ± 0.016	0.252 ± 0.015
VCLVFLFQFVLI	0.482 ± 0.094	0.507 ± 0.029	0.406 ± 0.023	0.517 ± 0.0061	0.442 ± 0.028	0.41 ± 0.0094	0.491 ± 0.01	0.481 ± 0.011
VCMVLCRWRGLG	0.601 ± 0.028	0.704 ± 0.0075	0.6061 ± 0.0028	0.6993 ± 0.0046	0.219 ± 0.011	0.234 ± 0.038	0.443 ± 0.026	0.331 ± 0.01
VCRCFPVCLFSF	0.6178 ± 0.0049	0.692 ± 0.014	0.523 ± 0.023	0.706 ± 0.027	0.294 ± 0.0057	0.341 ± 0.029	0.519 ± 0.02	0.413 ± 0.031
VCVRLVHCLVLV	0.2359 ± 0.0019	0.2514 ± 0.0021	0.208 ± 0.02	0.332 ± 0.0068	0.177 ± 0.01	0.174 ± 0.017	0.283 ± 0.014	0.265 ± 0.031
VFCCHSSRFVFA	0.642 ± 0.027	0.6789 ± 0.0065	0.525 ± 0.025	0.6858 ± 0.0031	0.49 ± 0.016	0.501 ± 0.028	0.623 ± 0.019	0.414 ± 0.022
VFCFCRFHFFCA	0.621 ± 0.066	0.649 ± 0.0077	0.496 ± 0.025	0.631 ± 0.026	0.432 ± 0.019	0.453 ± 0.02	0.563 ± 0.018	0.484 ± 0.026
VFFFVSFFAFSS	0.213 ± 0.0054	0.3558 ± 0.0034	0.22 ± 0.029	0.406 ± 0.0024	0.172 ± 0.016	0.179 ± 0.04	0.3544 ± 0.0014	0.288 ± 0.053
VFFLSFIFRFFL	0.594 ± 0.022	0.558 ± 0.02	0.508 ± 0.035	0.547 ± 0.013	0.482 ± 0.021	0.454 ± 0.0048	0.55 ± 0.087	0.532 ± 0.048

From the supplement of paper PMC10724198
